Experimental data as given in the supplement of paper PMC9170038.

Tested on: MS2 coat protein
Experiment: apparent KD of MS2 coat protein; designed switch direction (-1 OFF switch, 1 ON switch): -1; higher = weaker reporter binding
In short: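 Designed RNA switches with common flanks were made on Illumina chips by stalled E. coli RNA polymerase. Titration with SNAP-549-labelled MS2 coat protein doubled from 0.7 or 1.5 nM up to 3 µM. Apparent KD is each design's median over clusters after curve-fitting normalised fluorescence.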

[1] = Eterna round: R95, input ligand: FMN 200 uM
[2] = Eterna round: R95, input ligand: microRNA oligo, concentration not stated
[3] = Eterna round: R95, input ligand: none
[4] = input ligand: microRNA oligo, concentration not stated

Sequence	apparent KD of MS2 coat protein [2] [nM]	apparent KD of MS2 coat protein (input ligand: FMN 200 uM) [nM]	apparent KD of MS2 coat protein (input ligand: none) [nM]	other results
GUGUAAGGAGGAUAUACAUGAGGAUCACCCAUGUGAAUAAGAUAGAAUAAGAUAAAGUGUAGAAGGCUUAGUGU [Excluse me!!! 25 - Jieux - Exclusion 3] (puzzle: Exclusion 3)	38.6	–	–	apparent KD of MS2 coat protein [1]: 39 nM; apparent KD of MS2 coat protein [3]: 44.7 nM
GUGUACGAAGGAUAUACAUGAGGAUCACCCAUGUGAAUAAGAUAGAAUAAGAUAAAGUGUAGAAGGUCGAGUGU [Excluse me!!! 7 - Jieux - Exclusion 3] (puzzle: Exclusion 3)	27.1	–	–	–
GUGUACGGAGGAUAUAUGUGGGCAGCAUACGCUGCAGCUUCACAUGAGGAUCACCCAUGUAGAAGGCUGUGCAC [JL-ex2-2.11 Brourd mod] (puzzle: Exclusion 2)	20.1	–	–	–
GUGUAGCAAGGAUAUACAUGAGGAUCACCCAUGUGAAUAAGAUAGAAUAAGAUAAAGUGUAGAAGGUGCAGUGU [Excluse me!!! 8 - Jieux - Exclusion 3] (Eterna round: R96, puzzle: Exclusion 3)	–	44.9	41.6	apparent KD of MS2 coat protein [4]: 31.5 nM
GUGUAGCAAGGAUAUACAUGAGGAUCACCCAUGUGAAUAAGAUAGAAUAAGAUAAAGUGUAGAAGGUGCAGUGU [Excluse me!!! 8 - Jieux - Exclusion 3] (puzzle: Exclusion 3)	36.6	–	–	–
GUGUAGUCAGGAUAUACAGAGGAAGAUAAUACAAUAUAAGUACAUGAGGAUCACCCAUGUAGAAGGGACAGUGU [Excluse me!! 10 - Jieux - Exclusion 2] (puzzle: Exclusion 2)	25.7	–	–	–
GUGUGCAGAGGAUAUACAUAGGAAAAUAAAAGAGAAGUGGGACAUGAGGAUCACCCAUGUAGAAGGCUGAGUGU [Excluse me!! 22 - Jieux - Exclusion 2] (puzzle: Exclusion 2)	73.7	–	–	apparent KD of MS2 coat protein [1]: 89.9 nM; apparent KD of MS2 coat protein [3]: 72.8 nM
GUGUGUGAUGUAGGAUAUACGAGACAUGAGGAUCACCCAUGUGAGGGAAGGAGAAGGAGAAGAGAGUAGAAGGAUAGAGUGUGA [Default title] (Eterna round: R96, puzzle: Exclusion NG 2)	–	133	131	apparent KD of MS2 coat protein [4]: 144 nM
GUUAAACAUGAGGAUCACCCAUGUAAGGAUAUGCUGAGGUCGCGCUGACGUGAAUGAAGCAGAAGGUACAAAUG [Mat - Mod of JL D63] (puzzle: Exclusion 1)	76.7	–	–	apparent KD of MS2 coat protein [1]: 79.5 nM; apparent KD of MS2 coat protein [3]: 60.8 nM
GUUAAACAUGAGGAUCACCCAUGUAAGGAUAUGCUGCGGUCGCGAUGACGUGACUGCAGCAGAAGGUACAAAUG [Mat - Mod of JL D58] (puzzle: Exclusion 1)	69.7	–	–	–
GUUAACGCAGGAUAUUAGUACUUUUACAUGAGGAUCACCCAUGUUAAUUGGGUCUAAGAAUAAGAAGGGCGAUGAA [JR_Ex5_Sub009] (Eterna round: R97, puzzle: Exclusion 5)	–	48.3	42.8	–
GUUAAGGUAGGAUAUACGAUAAUAUAGGGUAGAAUUAUAACACAUGAGGAUCACCCAUGUAGAAGGACCAAUUG [Mat - Exclusion 2 - Mod of my Tesla design - D52] (puzzle: Exclusion 2)	25.8	–	–	–
GUUAGACAUGAGGAUCACCCAUGUGAGGAUAUGAUGCGAUCGUGAUGAAAUGAUCGCAUCAGAAGGCACAUAUG [Mat - Mod of JL D67] (puzzle: Exclusion 1)	123	–	–	–
GUUAUCGCAGGAUAUUAAUACUUGUACAUGAGGAUCACCCAUGUUUAUUGGGAUUAAGAAUAAGAAGGGCGAUGAA [JR_Ex5_Sub003] (Eterna round: R97, puzzle: Exclusion 5)	–	52.8	27.8	–
GUUAUCGCAGGAUAUUAGUACUUGUACAUGAGGAUCACCCAUGUUUAUUGGGUCUAAGAAUAAGAAGGGCGAUGAA [JR_Ex5_Sub005] (Eterna round: R97, puzzle: Exclusion 5)	–	105	32	–
GUUCGACAUGAGGAUCACCCAUGUGAGGAUAUACGAUUAGCUGCUAGGUAGUUAGUAUGUAGAAGGUGCGUGUA [EX1 #71] (Eterna round: R97, puzzle: Exclusion 1)	–	36	34.3	–
GUUCUGACAGGAUAUACAUGAGGAUCACCCAUGUGCCCUUAGAGAUGCAAAGCAUCUUGUAGAAGGGUCUGAAC [Omei Ex3 Model Bachelor's Dilema v27] (Eterna round: R97, puzzle: Exclusion 3)	–	42.1	37.6	–
GUUGUGUAAGGAUAUGCCUGGCCGUGAGGCCAGAUUGAAUAGCAGAAGGUACAUGAGGAUCACCCAUGUACGGG [salish99_ex4_4_001] (Eterna round: R97, puzzle: Exclusion 4)	–	109	22.7	–

Sequence	apparent KD of MS2 coat protein [2] [nM]	apparent KD of MS2 coat protein (input ligand: FMN 200 uM) [nM]	apparent KD of MS2 coat protein (input ligand: none) [nM]	other results
GUUGUGUUAGGAUAUAACAACUACUAAUAAAUUAGUAGUUGUUAGAAGGAACAUGAGGAUCACCCAUGUAUGAC [-21.3, -20.2 kcal, A 36%] (Eterna round: R97, puzzle: Exclusion 4)	–	52.5	30.5	–
GUUGUUUAUGUAGGAUAUGCCUGGCGUGCCUUUGCAGAAGGACAUGAGGAUCACCCAUGUAUUGCGGUCUGCGUUCAGAUCGCC [salish99_ExNG1_r4_041] (Eterna round: R96, puzzle: Exclusion NG 1)	–	33.1	25.2	apparent KD of MS2 coat protein [4]: 19.1 nM
GUUGUUUAUGUAGGAUAUGCGAGGCGAGCCUAAGCAGAAGGACAUGAGGAUCACCCAUGUAUUGCGGUCUGCGUUCAGAUCGCU [salish99_ExNG1_r4_016] (Eterna round: R96, puzzle: Exclusion NG 1)	–	183	26.9	apparent KD of MS2 coat protein [4]: 19.2 nM
GUUUAGUGAGGAUAUGUGGCUUCGAUCGUGAGAUCGAGGCUACAGAAGGCACAUGAGGAUCACCCAUGUUCCUC [salish99_ex4_r4_104] (Eterna round: R97, puzzle: Exclusion 4)	–	516	38.9	–
GUUUUACAUGAGGAUCACCCAUGUGAGGAUAUGUUAUUAAUAGCGAUAGUUAUUGGUGGCAGAAGGCGCGUGAU [JR_Exc1_Sub011] (Eterna round: R97, puzzle: Exclusion 1)	–	343	82.6	–
UAAAAGCGAGGAUAUACAUGAGGAUCACCCAUGUGAGGCGAAACGCCUCGGGCCAUCAGUAGAAGGUGCAAAAC [Veorgebe] (puzzle: Exclusion 3)	70.7	–	–	–
UAAAAGCUAGGAUAUACAUGAGGAUCACCCAUGUAUUAGGGCAUGAAAUCGGUCCCACGUAGAAGGAGCGACAC [Dilaxeed] (Eterna round: R97, puzzle: Exclusion 3)	–	105	24.5	–
UAAAAGCUAGGAUAUACAUGAGGAUCACCCAUGUCACGGGUCCACUCAUCCUAUACGUGUAGAAGGAGCGACCC [Ceriza] (puzzle: Exclusion 3)	20	–	–	–
UAAAAGGCAGGAUAUGCAGAAAAGGAAACUUUUCAAGAAUGACAUGAGGAUCACCCAUGUAGAAGGGCCUUUUA [Alacar Attempt 3] (Eterna round: R97, puzzle: Exclusion 2)	–	15.5	16.2	–
UAAAAUAGUGUGAGGAUAUGCUGGUCCUUGGAUCAGCAGAAGGCACAUGAGGAUCACCCAUGUAGUUAAUUUUA [Mat - Exclusion 4 - JL Mod - D23] (puzzle: Brourd's mod of Exclusion 4)	30.8	–	–	–
UAAACAAGCUAAAGAUCCUACAUGAGGAUCACCCAUGUGCUCGUCUUAUAAGGUACUGUGACGAAAGUCACGGUACC [JL TOV1 3.00] (Eterna round: R97, puzzle: Sensor, turn-off variant 1)	–	488	663	–
UAAAGUAUAUAGGAUAUCUAGCUGGUAACAGCUAGAGAAGGAUGUACAUGAGGAUCACCCAUGUAGAUCUCAAA [Ex6/15-A3] (Eterna round: R97, puzzle: Exclusion 6)	–	19.3	12.8	–
UAAAUGUGAGGAUAUUCGAUGAACACGGAGACGUGUUUAUCGGAGAAGGCACAUGAGGAUCACCCAUGUUCCUU [Mat - Exclusion 4 - JL Mod - D5] (Eterna round: R97, puzzle: Exclusion 4)	–	216	24.7	–
UAACAAAACUGAGGAUAUCCAUAGCAAAACGUUUGAUCCUCUACAUGAGGAUCACCCAUGUAGCAGGAGAAGGCAGAAACAAAG [Orraenso] (Eterna round: R96, puzzle: Exclusion NG 2)	–	28.3	21.6	apparent KD of MS2 coat protein [4]: 90.1 nM
UAACAAGCUUUAAGAUCCUACAUGAGGAUCACCCAUGUGCUCGUCUUGUAACGUACUGUGACGAAAGUCACGGUACG [JL TOV1 3.16] (Eterna round: R97, puzzle: Sensor, turn-off variant 1)	–	236	231	–
UAACAGCGAGGAUAUACAUGAGGAUCACCCAUGUACGGGUCCGGGUUUUCGUCCAAAAGUAGAAGGCGCAAUAA [Laongeedte] (puzzle: Exclusion 3)	38.4	–	–	apparent KD of MS2 coat protein [1]: 177 nM; apparent KD of MS2 coat protein [3]: 41.4 nM
UAACUUUUAGUAAGGAUAUCGGUCCCAAGGGACAACGAGAAGGUACAUGAGGAUCACCCAUGUGAAAUAAGAAU [Mod of Zala 3 - Jieux - Brourd's Mod of Exclusion 4] (Eterna round: R97, puzzle: Brourd's mod of Exclusion 4)	–	45.4	21.1	–
